Assay [1] addresses T1, Recombinant human LILRB2 protein (ELISA antigen) (human, UniProt Q8N423 22-460).
T1 construct: also called LILRB2-His; recombinant LILRB2
In words: ELISA, plate-coated recombinant human LILRB2. Here is the method:
To confirm binding to human and cynomolgus LILRB2, antibodies in supernatants were evaluated for binding by enzyme-linked immunosorbent assay (ELISA). Recombinant LILRB2 proteins (human: SEQ ID NO: 48; cynomolgus) were diluted in PBS to 2 μg/mL and added to 384-well high-binding ELISA plates (Greiner Bio-One Microlon™) at 25 μL/well and incubated at 4° C. overnight. The plates were washed three times with Wash Buffer (0.05% Tween® 20 in PBS), using a microplate washer and then blocked with 90 μL/well of ELISA Blocking Buffer A (1% BSA in PBS) for 1 hour at room temperature (RT). After blocking, 25 μL/well of LILRB2 antibodies or isotype control were added to the plates and incubated for 1 hour at RT. After primary antibody binding, plates were washed three times with Wash Buffer using a microplate washer. Secondary detection antibody (HRP-goat anti-rabbit Fab fragment) was diluted to 1:3000 in assay diluent (1% BSA in PBS) and 25 μL/well was added to plates and incubated at RT protected from light for 1 hour. Following incubation, plates were washed four times with Wash Buffer, using a microplate washer. […] After development, the reaction was stopped by addition of 25 μL/well of 0.3 M HCl, and plates were read using an EnVision (Perkin Elmer) microplate reader at 450 nm. EC₅₀ values were calculated based on log concentration of the primary antibodies at optical density at 450 nm.
(An ELISA detects its analyte on a solid surface through an enzyme-linked reagent.)

Assay [2] concerns the target T2, Human LILRB1 on transiently transfected HEK293-6E cells (human, UniProt Q8NHL6 24-650).
T2 construct: whole, on cells; also called hLILRB1
In words: flow cytometry, transiently transfected HEK293-6E cells. (In general: In flow cytometry, cells or beads pass a laser one at a time.)

Assay [3] concerns the target T1, Recombinant human LILRB2 protein (ELISA …). In words: ELISA, immobilized LILRB2-His; conditioned media of transient transfections. On the procedure:
To confirm binding to human and cynomolgus LILRB2, antibodies in supernatants were evaluated for binding by enzyme-linked immunosorbent assay (ELISA). Recombinant LILRB2 proteins (human: SEQ ID NO: 48; cynomolgus) were diluted in PBS to 2 μg/mL and added to 384-well high-binding ELISA plates (Greiner Bio-One Microlon™) at 25 μL/well and incubated at 4° C. overnight. The plates were washed three times with Wash Buffer (0.05% Tween® 20 in PBS), using a microplate washer and then blocked with 90 μL/well of ELISA Blocking Buffer A (1% BSA in PBS) for 1 hour at room temperature (RT). After blocking, 25 μL/well of LILRB2 antibodies or isotype control were added to the plates and incubated for 1 hour at RT. After primary antibody binding, plates were washed three times with Wash Buffer using a microplate washer. Secondary detection antibody (HRP-goat anti-rabbit Fab fragment) was diluted to 1:3000 in assay diluent (1% BSA in PBS) and 25 μL/well was added to plates and incubated at RT protected from light for 1 hour. Following incubation, plates were washed four times with Wash Buffer, using a microplate washer. After removal of the final wash, 25 μL/well of 1-Step™ Ultra TMB-ELISA Substrate Solution (Thermo Fisher, No. 34028) was added and plates were incubated for 5-10 min at RT, protected from light. After development, the reaction was stopped by addition of 25 μL/well of 0.3 M HCl, and plates were read using an EnVision (Perkin Elmer) microplate reader at 450 nm. EC₅₀ values were calculated based on log concentration of the primary antibodies at optical density at 450 nm.
Twenty-five IgG4 variants were expressed in mammalian cell culture as a combinatorial library of the five light and five heavy chains. In addition, B2A-IgG4 was included as a transfection control. The conditioned media from these transient transfections were assayed for human IgG concentration. A plate-based ELISA (see Example 2) was performed in which LILRB2-His was immobilized, and binding of humanized mAb variants was detected via an anti-human IgG4 HRP-labeled secondary antibody. The parental rabbit/human chimera clone transfection served as the benchmark EC₅₀ positive control.

For a further assay, the target named is T3, LILRB2-Fc protein (human, UniProt Q8N423 22-460, limits assumed).
T3 construct: also called human LILRB2-Fc; not shown: Fc part
Put plainly: blocking ELISA: LILRB2-Fc pre-incubated with antibody titration, binding to coated monomer HLA-G. Here is the method: Tumor-associated HLA-G is an HLA Class I ligand for LILRB2. Binding of HLA-G to LILRB2 induces an immune suppressive signal in LILRB2 expressing myeloid cells. To determine if the anti-LILRB2 antibodies block the HLA-G-LILRB2 interaction and prevent the induction of an inhibitory signal, blocking ELISA assays in a dose titration were performed. 384-well plates were coated with monomer HLA-G (Fred Hutchinson Cancer Research Center, No. bHLA-G) at a concentration of 5 μg/mL, diluted in PBS, then plates were incubated at RT for 1 hour. Plates were rinsed with Wash Buffer three times, then blocked with Blocking Buffer A for 30 minutes at RT. During blocking incubation step, LILRB2-Fc protein and antibody titrations were prepared in Blocking Buffer A. LILRB2-Fc protein was then incubated with antibody titrations for 30 minutes at RT to allow for binding prior to addition onto plate. Plates were rinsed three times with Wash Buffer, then 25 μL of protein/antibody mixture was added per well and incubated for 1 hour at RT. Following antibody incubation, plates were washed three times with Wash Buffer. Anti-human IgG Fc-HRP secondary antibody was diluted and added at 25 μL/well. Plates were incubated in the dark for 1 hour at RT. Following secondary antibody incubation, plates were washed four times with Wash Buffer. […] Absorbance was read at 450 nm using the Envision. […]

T1 sequence (Q8N423 other isoform, or with tags, fused parts or gaps limits assumed): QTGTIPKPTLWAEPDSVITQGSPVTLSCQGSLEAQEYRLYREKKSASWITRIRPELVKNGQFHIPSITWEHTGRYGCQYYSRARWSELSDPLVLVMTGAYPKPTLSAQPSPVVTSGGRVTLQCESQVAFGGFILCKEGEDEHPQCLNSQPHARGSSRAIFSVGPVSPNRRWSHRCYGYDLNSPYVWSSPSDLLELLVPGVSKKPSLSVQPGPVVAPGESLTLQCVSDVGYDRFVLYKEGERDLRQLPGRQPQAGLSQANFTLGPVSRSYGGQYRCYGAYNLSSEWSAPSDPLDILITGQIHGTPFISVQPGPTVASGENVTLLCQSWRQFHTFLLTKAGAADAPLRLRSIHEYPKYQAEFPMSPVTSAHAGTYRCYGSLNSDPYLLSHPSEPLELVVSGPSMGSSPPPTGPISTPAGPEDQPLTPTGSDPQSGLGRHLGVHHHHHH
T3 sequence (Q8N423 22-460 limits assumed): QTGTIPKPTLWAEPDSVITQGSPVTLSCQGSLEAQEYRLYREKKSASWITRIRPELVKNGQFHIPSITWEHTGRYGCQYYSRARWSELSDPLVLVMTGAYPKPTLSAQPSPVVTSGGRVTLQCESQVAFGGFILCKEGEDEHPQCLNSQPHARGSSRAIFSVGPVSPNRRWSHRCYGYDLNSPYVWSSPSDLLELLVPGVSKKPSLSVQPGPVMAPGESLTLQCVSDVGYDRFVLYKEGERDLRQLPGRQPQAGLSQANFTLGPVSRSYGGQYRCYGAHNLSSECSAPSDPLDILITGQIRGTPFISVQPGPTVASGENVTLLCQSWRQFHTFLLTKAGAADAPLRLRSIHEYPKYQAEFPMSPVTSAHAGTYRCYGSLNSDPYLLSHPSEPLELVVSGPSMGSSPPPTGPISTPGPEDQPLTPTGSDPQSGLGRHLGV
T2 sequence (Q8NHL6 24-650): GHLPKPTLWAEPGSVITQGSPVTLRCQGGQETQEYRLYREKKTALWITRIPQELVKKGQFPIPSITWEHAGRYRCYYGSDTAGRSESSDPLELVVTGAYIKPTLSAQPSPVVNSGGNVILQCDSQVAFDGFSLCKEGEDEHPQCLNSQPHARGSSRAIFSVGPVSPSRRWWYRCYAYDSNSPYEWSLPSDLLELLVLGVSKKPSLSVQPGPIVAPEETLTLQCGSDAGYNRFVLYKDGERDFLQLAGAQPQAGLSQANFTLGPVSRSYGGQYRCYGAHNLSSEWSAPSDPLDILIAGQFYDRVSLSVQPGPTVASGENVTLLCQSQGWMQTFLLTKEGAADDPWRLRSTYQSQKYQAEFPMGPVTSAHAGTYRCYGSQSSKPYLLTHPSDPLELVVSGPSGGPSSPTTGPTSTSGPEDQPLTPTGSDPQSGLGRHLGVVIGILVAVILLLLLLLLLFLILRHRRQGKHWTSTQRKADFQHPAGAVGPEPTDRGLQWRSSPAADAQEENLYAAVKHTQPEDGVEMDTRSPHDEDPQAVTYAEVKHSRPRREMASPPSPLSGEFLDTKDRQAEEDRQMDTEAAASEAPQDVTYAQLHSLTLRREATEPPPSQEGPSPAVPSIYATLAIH

B1: B2A-IgG1 (antibody)
heavy: not shown
light: DVVMTQTPSSVSAALGGTVTIKCQASQSIGSNLAWYQLKPGQRPKLLIYAAATLASGGSSRFKGSGSGTDFTLTISDLECADAATYYCQSYVSGSSDVAFGGGTEVVVKRTVAAPSVFIFPPSDEQLKSGTASVVCLLNNFYPREAKVQWKVDNALQSGNSQESVTEQDSKDSTYSLSSTLTLSKADYEKHKVYACEVTHQGLSSPVTKSFNRGEC
notes: Rabbit variable regions on human IgG1 / kappa constant regions; AF647-conjugated in some flow assays; also called B2A-IgG1 chimera; anti-LILRB2 B2A-IgG1
The term EC50 denotes the concentration giving half of the maximal effect. In the case of B1, the EC50 in assay [1] was determined as 3.81 ng/mL. The same molecule yielded an MFI in assay [2] of 43 MFI.

B2: B2A-IgG4 (antibody)
heavy: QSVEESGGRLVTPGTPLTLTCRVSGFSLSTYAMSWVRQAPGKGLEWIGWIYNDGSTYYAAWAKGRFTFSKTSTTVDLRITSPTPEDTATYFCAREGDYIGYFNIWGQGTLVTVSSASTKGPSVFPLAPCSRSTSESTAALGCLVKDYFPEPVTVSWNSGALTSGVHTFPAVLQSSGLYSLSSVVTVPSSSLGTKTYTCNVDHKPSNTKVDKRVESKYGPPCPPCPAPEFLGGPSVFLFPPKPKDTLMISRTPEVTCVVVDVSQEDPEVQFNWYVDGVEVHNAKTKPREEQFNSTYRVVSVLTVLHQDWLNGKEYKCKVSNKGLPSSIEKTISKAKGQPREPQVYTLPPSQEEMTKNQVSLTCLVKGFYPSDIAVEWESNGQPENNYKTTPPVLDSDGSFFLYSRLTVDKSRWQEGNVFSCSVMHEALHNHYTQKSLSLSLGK
light: B1 light
notes: Rabbit variable regions on human IgG4 / kappa constant regions; also called B2A-IgG4 chimera; Parent B2A-IgG4
One may read the IC50 as the concentration that inhibits the measured activity by half. Low values mean greater potency in that assay, high ones weaker potency in that assay. For the molecule B2, the concentration for a half-maximal effect (EC50) in assay [3] came to 2.74 ng/mL. The half-maximal inhibitory concentration (IC50) with LILRB2-Fc protein turned out to be 66 ng/mL.

The values above are taken from patent publication US20240132589A1 (ONCORESPONSE, published 2024).
